Experiments:
Assay in all cases: cell-based or functional assay
[1] = biological target: p80-angiomotin (Homo sapiens (Human)) (UniProt Q4VCS5)
[2] = biological target: endogenous angiomotin of bovine capillary endothelial (BCE) cells (p80- and p130-isoforms) (bovine)
[3] = biological target: p130-angiomotin (Homo sapiens (Human)) (UniProt Q4VCS5)

Human angiostatin (kringle 1-4) (from UniProt P00747 99-459) (ligand)
decrease in bFGF-stimulated migration of MAE cells expressing p80-angiomotin, Boyden chamber, angiostatin 5 ug/ml [1]: 175% | decrease in motility of CHO cells expressing p80-angiomotin, Boyden chamber [1]: 50% | invasion of Matrigel by human cytotrophoblasts, angiostatin 5 ug/ml [1]: 3 fold | decrease in bFGF-stimulated migration of hTERT+-BCE cells, migration chamber assay [2]: 85% | decrease in bFGF-stimulated migration of MAE cells expressing p130-angiomotin, Boyden chamber, angiostatin 5 ug/ml [3]: 160% | decrease in motility of CHO cells expressing p130-angiomotin, Boyden chamber [3]: 50% | invasion of Matrigel by human cytotrophoblasts, angiostatin 5 ug/ml [3]: 3 fold

— US20090060915A1
